Legend:
[1] = target: T1, human CD32b expressed endogenously on human cells (human, UniProt P31994 43-310); test: flow cytometry on BJAB cells; biotinylated hIgG1 [N297A] antibody, streptavidin-PE, GMFI
T1 construct: whole, on cells; The background says that CD32b1 is the form on lymphoid cells and CD32b2 the form on myeloid cells; also called CD32b on primary human B cells, plasma cells, macrophages, BJAB, KARPAS422 and Daudi cells
T1 sequence (looked up): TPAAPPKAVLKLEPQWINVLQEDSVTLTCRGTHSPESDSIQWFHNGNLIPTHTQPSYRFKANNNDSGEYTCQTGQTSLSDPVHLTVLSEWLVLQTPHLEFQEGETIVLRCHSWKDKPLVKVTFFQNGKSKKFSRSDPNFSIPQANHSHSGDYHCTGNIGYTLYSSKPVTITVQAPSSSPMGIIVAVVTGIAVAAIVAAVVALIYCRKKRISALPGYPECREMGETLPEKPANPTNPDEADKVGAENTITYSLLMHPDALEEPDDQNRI
Description: The binding of huCD32b specific antibodies to the BJAB cell line was evaluated by flow cytometry. BJAB cells were collected and suspended in FACS Buffer (PBS1× containing 2% BSA, 2 mM EDTA), counted and suspended at 0.25×10⁶ cells per ml. 50'000 cells/well (200 μl) were then dispensed in V-bottomed 96 well plates. Plates were spun for 5 min at 1500 rpm and the supernatant discarded. […] Biotinylation of antibodies was performed using the Lightning-Link biotin conjugation kit (Type A) from Innova Biosciences (Cat. No 704-0010) according to the supplier's instructions. After 2 successive washes with FACS buffer, cells were suspended in 50 μl FACS buffer containing a 1/500 dilution of Streptavidin-PE (Invitrogen 521388) and further incubated for 20 min at 4° C. Cells were washed twice and suspended in 200 μl FACS buffer and acquired on a FACS Fortessa. The Geometric Mean Fluorescence (GMFI in the PE channel) was used as a measure of the binding intensity of each antibody.

[2] = target: T1, human CD32b expressed endogenously on …; test: flow cytometry titration (GMFI), biotinylated IgG1 [N297A] on purified primary human B cells, CD20+ gate
Description: Plates were spun for 5 min at 1500 rpm and the supernatant discarded. […] Biotinylation of antibodies was performed using the Lightning-Link biotin conjugation kit (Type A) from Innova Biosciences (Cat. No 704-0010) according to the supplier's instructions. […] Cells were washed twice and suspended in 200 μl FACS buffer and acquired on a FACS Fortessa.

[3] = target: T2, huCD64 (Fc gamma RI) expressed on stable CHO cells (human, UniProt P12314 16-374); test: flow cytometry on stable CHO cells expressing huCD64; hIgG1 [N297A] antibody, GMFI; the text ascribes this binding to the Fc portion
T2 construct: whole, on cells; also called CHO-huCD64
T2 sequence (P12314 16-374): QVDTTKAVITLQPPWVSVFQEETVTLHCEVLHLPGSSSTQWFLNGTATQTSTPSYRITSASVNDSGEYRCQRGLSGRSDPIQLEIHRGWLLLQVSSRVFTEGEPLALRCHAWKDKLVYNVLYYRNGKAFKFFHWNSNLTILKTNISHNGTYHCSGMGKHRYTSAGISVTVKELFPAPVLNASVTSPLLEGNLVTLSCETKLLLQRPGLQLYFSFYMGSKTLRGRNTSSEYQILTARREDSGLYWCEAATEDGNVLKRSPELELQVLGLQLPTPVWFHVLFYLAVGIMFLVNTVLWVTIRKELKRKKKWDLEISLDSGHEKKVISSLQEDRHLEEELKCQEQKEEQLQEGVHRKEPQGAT
Description: (§1) The binding of huCD32b specific antibodies was evaluated by flow cytometry using stable CHO cell lines expressing the low affinity human CD16 variants (i.e huCD16a or huCD16b variants) and the high affinity huCD64 (FcγRI). CHO cells transfected with huCD16a variants were also transfected with the common Fcγ chain in order to allow for surface expression. CHO cells were collected following detachment with PBS containing 2 mM EDTA and pelleted. Cell pellets were washed once in PBS and suspended in FACS Buffer (PBS1× containing 2% BSA, 2 mM EDTA and 0.1% NaN3), counted and suspended at 0.25×10⁶ cells per ml. 50'000 cells/well (200 μl) were then dispensed in V-bottomed 96 well plates. Plates were spun for 5 min at 1600 rpm and the supernatant discarded. […] After 3 successive washes with FACS buffer, cells were suspended in 50 μl FACS buffer containing a 1/100 dilution of the F(ab′)2 anti-human F(ab′)2-PE (Jackson Immunoresearch#109-116-097) and further incubated 30 min at 4° C. Cells were washed twice and suspended in 200 μl FACS buffer and acquired on a FACS Canto II (acquisition of 5000 cells in the live cell gate). The Geometric Mean Fluorescence (GMFI in the PE channel) was used as a measure of the binding intensity of each antibody.

huCD32b-deglyco [4] = target: T3, huCD32b-deglyco (human, UniProt P31994 43-222, limits assumed, deglycosylated (deglyco) (so in the source)); test: SPR (Biacore T200), IgG amine-coupled on the chip, huCD32b-deglyco analyte 0.61-5000 nM, 1:1 binding model; mean and standard deviation of the runs
T3 construct: Soluble analyte of the SPR assay; also called huCD32b receptor (SPR analyte); human CD32b
T3 sequence: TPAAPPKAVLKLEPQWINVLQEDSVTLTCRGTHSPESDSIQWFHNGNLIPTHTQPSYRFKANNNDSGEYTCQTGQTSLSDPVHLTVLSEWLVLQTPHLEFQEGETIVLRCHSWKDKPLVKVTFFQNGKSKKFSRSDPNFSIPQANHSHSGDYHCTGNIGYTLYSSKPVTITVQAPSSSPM
Description: (§2) Three independent direct binding assays with IgGs covalently immobilized on the biosensor and huCD32b receptor serving as analyte were performed to determine the binding affinities of the IgGs for huCD32b. Kinetic data were acquired by subsequent injections of analyte dilution series on all flow cells. Flow cell 1 (chip 1) served as a reference.
(§3) A dilution series of huCD32b-deglyco, 0.61-5000 nM (1:2 dilution series) in running buffer was injected over the surface (flow rate: 30 μl/min, association time: 60 sec, dissociation time: 120 sec). The chip surface was regenerated with one basic wash step before each analyte injection (30 μl/min; contact time: 30 sec, stabilization period: 250 sec). Data were evaluated using the Biacore T200 evaluation software version 1.0. The raw data were double referenced, i.e. the response of the measuring flow cell was corrected for the response of the reference flow cell, and in a second step the response of a blank injection was subtracted. Outlier sensorgrams were removed if necessary. The sensorgrams were fitted by applying a 1:1 binding model to calculate kinetic rate constants and dissociation equilibrium constants. Rmax was set at global whereas RI was fitted locally. Data were processed individually for each run. The generated values were used to calculate average values and standard deviations of the respective kinetic constants.

[5] = target: T4, WT human CD32b1 expressed on stably transfected cells (human, UniProt P31994 43-310); test: flow cytometry, Alexa-647 labelled hIgG1 [N297A] antibody, ΔMFI; stable BJAB cells expressing huCD32b
T4 construct: also called huCD32b; WT CD32b
T4 sequence: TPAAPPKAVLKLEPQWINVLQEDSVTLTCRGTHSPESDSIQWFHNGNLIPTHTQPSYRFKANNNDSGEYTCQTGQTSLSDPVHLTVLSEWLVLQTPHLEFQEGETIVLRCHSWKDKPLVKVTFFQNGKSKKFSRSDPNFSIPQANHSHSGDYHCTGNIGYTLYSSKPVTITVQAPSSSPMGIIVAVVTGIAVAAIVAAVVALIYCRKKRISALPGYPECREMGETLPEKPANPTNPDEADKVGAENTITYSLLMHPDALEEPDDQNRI

huCD32b-deglyco [6] = target: T3, huCD32b-deglyco; test: SPR (Biacore T200), IgG amine-coupled on the chip, huCD32b-deglyco analyte 0.61-5000 nM, 1:1 binding model; single experiment
Description: as §2, §3

MW82 (huCD32a H131) = target: T5, MW82 (huCD32a H131) (human, UniProt P12318); test: flow cytometry on stable CHO cells expressing huCD32a H131 (MW82); hIgG1 [N297A] antibody, GMFI
T5 sequence (receptor, looked up): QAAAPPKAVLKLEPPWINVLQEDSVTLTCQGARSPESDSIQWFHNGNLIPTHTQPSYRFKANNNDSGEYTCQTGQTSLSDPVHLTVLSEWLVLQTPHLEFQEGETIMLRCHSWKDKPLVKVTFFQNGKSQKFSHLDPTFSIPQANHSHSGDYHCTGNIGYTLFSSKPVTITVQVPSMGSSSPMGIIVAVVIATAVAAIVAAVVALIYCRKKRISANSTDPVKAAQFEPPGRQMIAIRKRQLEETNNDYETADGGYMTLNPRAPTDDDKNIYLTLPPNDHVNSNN
Description: as §1, with “HuCD32b and huCD32a have high degree” for “The binding”, “sequence homology. […]” for “huCD32b specific antibodies was evaluated by flow cytometry using stable CHO cell lines expressing the low affinity human CD16 variants (i.e huCD16a or huCD16b variants) and the high affinity huCD64 (FcγRI). CHO cells transfected with huCD16a variants were also transfected with the common Fcγ chain in order to allow for surface expression.”

B1: NOV1216_N297A (antibody, human IgG1, lambda, N297A)
heavy: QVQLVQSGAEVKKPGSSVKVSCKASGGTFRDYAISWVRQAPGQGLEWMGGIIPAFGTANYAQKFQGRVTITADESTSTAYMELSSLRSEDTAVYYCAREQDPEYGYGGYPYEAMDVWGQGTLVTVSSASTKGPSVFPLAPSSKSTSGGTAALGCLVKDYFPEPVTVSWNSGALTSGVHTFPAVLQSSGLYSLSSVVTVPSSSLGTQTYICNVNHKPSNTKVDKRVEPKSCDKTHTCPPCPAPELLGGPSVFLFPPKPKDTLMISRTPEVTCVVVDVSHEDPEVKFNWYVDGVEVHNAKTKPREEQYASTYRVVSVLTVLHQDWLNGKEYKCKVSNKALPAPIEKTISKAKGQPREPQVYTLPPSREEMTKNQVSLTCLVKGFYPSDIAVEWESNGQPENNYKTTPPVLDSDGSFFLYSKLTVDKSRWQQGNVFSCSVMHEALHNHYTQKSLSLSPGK
light: SYELTQPLSVSVALGQTARITCSGDNIPQHSVHWYQQKPGQAPVLVIYDDTERPSGIPERFSGSNSGNTATLTISRAQAGDEADYYCSSWDSSMDSVVFGGGTKLTVLGQPKAAPSVTLFPPSSEELQANKATLVCLISDFYPGAVTVAWKADSSPVKAGVETTTPSKQSNNKYAASSYLSLTPEQWKSHRSYSCQVTHEGSTVEKTVAPTECS
notes: Human IgG1 with N297A (Fc silent); also called Fc silent NOV1216
B1 was tested, and the “binding affinity (printed 'BJABs:')” value [1] was 0.7 nM, the binding affinity [2] was 1.4 nM and the binding result [3] was “binds”.

B2: NOV2108_N297A (antibody, human IgG1, lambda, N297A)
heavy: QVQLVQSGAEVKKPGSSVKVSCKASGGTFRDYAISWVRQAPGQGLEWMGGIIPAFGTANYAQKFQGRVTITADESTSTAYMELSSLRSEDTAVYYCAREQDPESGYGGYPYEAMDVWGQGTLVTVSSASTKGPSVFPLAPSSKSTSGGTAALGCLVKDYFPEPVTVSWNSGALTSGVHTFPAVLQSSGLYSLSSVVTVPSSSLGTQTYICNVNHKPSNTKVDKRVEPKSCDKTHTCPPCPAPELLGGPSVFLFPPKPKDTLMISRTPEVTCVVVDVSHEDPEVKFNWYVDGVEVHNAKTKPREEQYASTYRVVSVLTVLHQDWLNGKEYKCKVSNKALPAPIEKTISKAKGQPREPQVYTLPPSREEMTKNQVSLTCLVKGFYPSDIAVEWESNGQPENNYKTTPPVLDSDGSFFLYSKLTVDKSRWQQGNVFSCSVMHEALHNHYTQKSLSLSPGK
light: SYELTQPLSVSVALGQTARITCSGDNIPQHSVHWYQQKPGQAPVLVIYDDTERPSGIPERFSGSNSGNTATLTISRAQAGDEADYYCSSWDSSMDSVVFGGGTKLTVLGQPKAAPSVTLFPPSSEELQANKATLVCLISDFYPGAVTVAWKADSSPVKAGVETTTPSKQSNNKYAASSYLSLTPEQWKSHRSYSCQVTHEGSTVEKTVAPTECS
notes: CDR-H3 mutant of NOV1216; human IgG1 with N297A; Alexa Fluor 647-labelled in flow cytometry; also called Fc silent NOV2108 [N297A]
A Kd (huCD32b-deglyco [4]) of 18 nM, a koff (huCD32b-deglyco [4]) of 0.29 s⁻¹ and a kon (huCD32b-deglyco [4]) of 1.5e+07 M⁻¹ s⁻¹ were found for B2 in this work.

B3: NOV2107_N297A (antibody, human IgG1, lambda, N297A)
heavy: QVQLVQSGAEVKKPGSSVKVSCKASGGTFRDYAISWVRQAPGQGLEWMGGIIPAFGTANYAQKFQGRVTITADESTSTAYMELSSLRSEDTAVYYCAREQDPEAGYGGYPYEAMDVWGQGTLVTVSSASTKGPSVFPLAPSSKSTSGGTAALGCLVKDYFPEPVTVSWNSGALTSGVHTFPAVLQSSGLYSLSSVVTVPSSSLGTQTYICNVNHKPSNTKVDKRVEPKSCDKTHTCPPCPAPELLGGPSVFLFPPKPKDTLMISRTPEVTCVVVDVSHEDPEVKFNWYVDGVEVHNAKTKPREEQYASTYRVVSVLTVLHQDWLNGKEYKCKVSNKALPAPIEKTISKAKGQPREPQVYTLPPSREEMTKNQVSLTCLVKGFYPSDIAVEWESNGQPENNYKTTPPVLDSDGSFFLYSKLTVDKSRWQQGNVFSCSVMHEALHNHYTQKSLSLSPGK
light: SYELTQPLSVSVALGQTARITCSGDNIPQHSVHWYQQKPGQAPVLVIYDDTERPSGIPERFSGSNSGNTATLTISRAQAGDEADYYCSSWDSSMDSVVFGGGTKLTVLGQPKAAPSVTLFPPSSEELQANKATLVCLISDFYPGAVTVAWKADSSPVKAGVETTTPSKQSNNKYAASSYLSLTPEQWKSHRSYSCQVTHEGSTVEKTVAPTECS
notes: CDR-H3 mutant of NOV1216; human IgG1 with N297A; also called Fc silent N297A variant of NOV2107
B3: binds [5].

B4: NOV2112 N297A (antibody, human IgG1, lambda, N297A)
heavy chain: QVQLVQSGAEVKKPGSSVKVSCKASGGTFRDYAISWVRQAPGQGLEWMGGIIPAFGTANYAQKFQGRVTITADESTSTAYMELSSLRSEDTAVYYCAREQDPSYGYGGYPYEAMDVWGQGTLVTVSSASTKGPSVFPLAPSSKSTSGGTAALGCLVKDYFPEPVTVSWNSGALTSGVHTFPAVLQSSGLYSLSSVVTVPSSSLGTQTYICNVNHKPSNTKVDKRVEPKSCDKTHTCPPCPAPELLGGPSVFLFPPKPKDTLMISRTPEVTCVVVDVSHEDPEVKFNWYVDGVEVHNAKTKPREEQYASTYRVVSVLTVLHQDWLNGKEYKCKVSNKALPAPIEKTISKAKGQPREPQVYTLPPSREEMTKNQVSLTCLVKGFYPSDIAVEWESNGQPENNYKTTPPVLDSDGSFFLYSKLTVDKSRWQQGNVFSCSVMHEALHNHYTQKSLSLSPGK
light chain: SYELTQPLSVSVALGQTARITCSGDNIPQHSVHWYQQKPGQAPVLVIYDDTERPSGIPERFSGSNSGNTATLTISRAQAGDEADYYCSSWDSSMDSVVFGGGTKLTVLGQPKAAPSVTLFPPSSEELQANKATLVCLISDFYPGAVTVAWKADSSPVKAGVETTTPSKQSNNKYAASSYLSLTPEQWKSHRSYSCQVTHEGSTVEKTVAPTECS
B4: binds [5].

B5: afucosylated NOV2108 (antibody, human IgG1, lambda)
heavy: not shown
light: SYELTQPLSVSVALGQTARITCSGDNIPQHSVHWYQQKPGQAPVLVIYDDTERPSGIPERFSGSNSGNTATLTISRAQAGDEADYYCSSWDSSMDSVVFGGGTKLTVLGQPKAAPSVTLFPPSSEELQANKATLVCLISDFYPGAVTVAWKADSSPVKAGVETTTPSKQSNNKYAASSYLSLTPEQWKSHRSYSCQVTHEGSTVEKTVAPTECS
modifications: afucosylated: N-glycan structure lacking core fucose
notes: also called NOV2108, afucosylated antibody; NOV2108 (afucosylated format)
A Kd (huCD32b-deglyco [6]) of 16 nM, a koff (huCD32b-deglyco [6]) of 0.11 s⁻¹ and a kon (huCD32b-deglyco [6]) of 6.8e+06 M⁻¹ s⁻¹ were found for B5 in this work.

B6: NOV0281_N297A (antibody, human IgG1, lambda, N297A)
heavy: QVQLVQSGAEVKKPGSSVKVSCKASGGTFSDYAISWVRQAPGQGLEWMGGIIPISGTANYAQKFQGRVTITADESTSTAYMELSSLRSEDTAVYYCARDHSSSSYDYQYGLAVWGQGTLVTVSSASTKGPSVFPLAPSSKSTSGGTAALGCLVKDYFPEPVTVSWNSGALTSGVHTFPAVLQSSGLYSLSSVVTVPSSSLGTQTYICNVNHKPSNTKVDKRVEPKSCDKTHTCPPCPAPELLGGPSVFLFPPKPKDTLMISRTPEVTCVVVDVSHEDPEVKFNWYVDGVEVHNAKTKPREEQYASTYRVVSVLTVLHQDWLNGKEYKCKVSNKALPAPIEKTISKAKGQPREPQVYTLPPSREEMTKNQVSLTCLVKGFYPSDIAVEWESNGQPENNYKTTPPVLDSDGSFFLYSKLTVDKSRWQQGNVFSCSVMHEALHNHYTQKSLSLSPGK
light: DIELTQPPSVSVSPGETASITCSGDKLGDYYVHWYQQKPGQAPVLVIYQDSKRPSGIPERFSGSNSGNTATLTISGTQAEDEADYYCGATDLSPWSIVFGGGTKLTVLGQPKAAPSVTLFPPSSEELQANKATLVCLISDFYPGAVTVAWKADSSPVKAGVETTTPSKQSNNKYAASSYLSLTPEQWKSHRSYSCQVTHEGSTVEKTVAPTECS
notes: also called NOV0281 on a human IgG1 [N297A] scaffold
B6 was tested, and the “binding affinity (printed 'BJABs:')” value [1] was 2.4 nM, the binding affinity [2] was 5.4 nM and the binding result (MW82 (huCD32a H131)) was “binds”. B6: binds [3].

B7: NOV1218 (antibody, human IgG1, lambda, N297A)
heavy chain: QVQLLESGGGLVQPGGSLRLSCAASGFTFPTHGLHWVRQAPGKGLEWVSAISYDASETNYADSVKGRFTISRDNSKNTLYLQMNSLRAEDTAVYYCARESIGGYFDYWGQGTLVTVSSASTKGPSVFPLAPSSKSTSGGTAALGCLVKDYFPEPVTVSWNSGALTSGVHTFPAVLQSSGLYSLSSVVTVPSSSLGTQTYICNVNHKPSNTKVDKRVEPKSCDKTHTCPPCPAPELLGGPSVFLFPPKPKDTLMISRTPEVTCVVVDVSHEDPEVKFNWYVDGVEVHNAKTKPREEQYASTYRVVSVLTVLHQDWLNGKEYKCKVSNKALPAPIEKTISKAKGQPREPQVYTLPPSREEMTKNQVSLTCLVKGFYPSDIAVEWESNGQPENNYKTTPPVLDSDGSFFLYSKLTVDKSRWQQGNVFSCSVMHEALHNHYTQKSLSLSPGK
light chain: SYELTQPLSVSVALGQTARITCSGDALGKNTVSWYQQKPGQAPVLVIYDDTDRPSGIPERFSGSNSGNTATLTISRAQAGDEADYYCSSTDLSTVVFGGGTKLTVLGQPKAAPSVTLFPPSSEELQANKATLVCLISDFYPGAVTVAWKADSSPVKAGVETTTPSKQSNNKYAASSYLSLTPEQWKSHRSYSCQVTHEGSTVEKTVAPTECS
notes: also called NOV1218_N297A; NOV1218 N297A
With B7 the “binding affinity (printed 'BJABs:')” value [1] was 19 nM, the binding result (MW82 (huCD32a H131)) was “binds” and the binding result [3] was “binds”.

B8: NOV0308_N297A (antibody, human IgG1, lambda, N297A)
heavy: not shown
light: DIELTQPPSVSVSPGQTASITCSGDNLGSKYVHWYQQKPGQAPVLVIYDDNKRPSGIPERFSGSNSGNTATLTISGTQAEDEADYYCQSWTLGNWVFGGGTKLTVLGQPKAAPSVTLFPPSSEELQANKATLVCLISDFYPGAVTVAWKADSSPVKAGVETTTPSKQSNNKYAASSYLSLTPEQWKSHRSYSCQVTHEGSTVEKTVAPTECS
notes: also called NOV0308 on a human IgG1 [N297A] scaffold
In the case of B8, the “binding affinity (printed 'BJABs:')” value [1] is reported as 4.2 nM and the binding result [3] is reported as “binds”.
